Tests used:
HeLa Kyoto [1] = assay: thermal stability score vs G1/S (z-score of summed log2 fold changes over temperatures); higher = more thermally stable than in G1/S
HeLa Kyoto [2] = assay: melting temperature (median over replicates), in situ; higher = more thermally stable
HeLa Kyoto [3] = assay: solubility change mitosis vs G1/S (difference of NP-40 vs SDS log2 ratios) (log2 ratio difference); higher = more soluble in mitosis
HeLa Kyoto [4] = assay: solubility in G1/S (NP-40 vs SDS abundance) (log2 ratio); higher = more soluble; conditions: cell cycle stage: G1/S
[5] = cell cycle stage: early G1 (4.5 h after nocodazole release)
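For melting temperature (median over replicates), in situ in this document: HeLa Kyoto cells synchronized by double thymidine or nocodazole block, proteins quantified by TMT10plex mass spectrometry, three independent biological replicates.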
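For solubility change mitosis vs G1/S (difference of NP-40 vs SDS log2 ratios) in this document: synchronized HeLa Kyoto cells (double thymidine block for G1/S, nocodazole release for mitosis), protein amounts in NP-40 versus SDS lysates quantified by mass spectrometry, three biological replicates.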
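For solubility in G1/S (NP-40 vs SDS abundance) in this document: HeLa Kyoto cells arrested at G1/S by double thymidine block, proteins quantified by TMT10plex mass spectrometry in mild NP-40 versus SDS extracts, three biological replicates.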
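For thermal stability score vs G1/S (z-score of summed log2 fold changes over temperatures) in this document: synchronized HeLa Kyoto cells, proteins quantified by TMT10plex mass spectrometry, three biological replicates, mitosis taken 0.5 h after nocodazole release, G1/S directly after double thymidine block.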

| Substance | thermal stability score (HeLa Kyoto [1]; [5]) | thermal stability score (HeLa Kyoto [1]; cell cycle stage: mitosis) | melting temperature (HeLa Kyoto [2]; cell cycle stage: G1/S) [°C] | melting temperature (HeLa Kyoto [2]; cell cycle stage: mitosis) [°C] | solubility change mitosis (log2) (HeLa Kyoto [3]) | solubility in G1/S (log2) (HeLa Kyoto [4]) |
| --- | --- | --- | --- | --- | --- | --- |
| FAM136A | -3.91 | -5.74 | 52.9 | 53.3 | 0.0886 | 0.101 |
| MADEIAKAQVARPGGDTIFGKIIRKEIPAKIIFEDDRCLAFHDISPQAPTHFLVIPKKHISQISVAEDDDESLLGHLMIVGKKCAADLGLNKGYRMVVNEGSDGGQSVYHVHLHVLGGRQMHWPPG [HINT1] | -5.39 | -4.12 | 56.4 | 56 | 0.17 | 0.25 |
| MPEAPPLLLAAVLLGLVLLVVLLLLLRHWGWGLCLIGWNEFILQPIHNLLMGDTKEQRILNHVLQHAEPGNAQSVLEAIDTYCEQKEWAMNVGDKKGKIVDAVIQEHQPSVLLELGAYCGYSAVRMARLLSPGARLITIEINPDCAAITQRMVDFAGVKDKVTLVVGASQDIIPQLKKKYDVDTLDMVFLDHWKDRYLPDTLLLEECGLLRKGTVLLADNVICPGAPDFLAHVRGSSCFECTHYQSFLEYREVVDGLEKAIYKGPGSEAGP [COMT] | 3.01 | 5.26 | 52.9 | 54.2 | -0.128 | -0.0917 |
| MNIMNTEQSQNSIVSRIKVFEGQTNIETSGLPKKPEITPRSLPPKPTVSSGKPSVAPKPAANRASGEWDSGTENRLKVTSKEGLTPYPPLQEAGSIPVTKPELPKKPNPGLIRSVNPEIPGRGPLAESSDSGKKVPTPAPRPLLLKKSVSSENPTYPSAPLKPVTVPPRLAGASQAKAYKSLGEGPPANPPVPVLQSKPLVDIDLISFDDDVLPTPSGNLAEESVGSEMVLDPFQLPAKTEPIKERAVQPAPTRKPTVIRIPAKPGKCLHEDPQSPPPLPAEKPIGNTFSTVSGKLSNVERTRNLESNHPGQTGGFVRVPPRLPPRPVNGKTIPTQQPPTKVPPERPPPPKLSATRRSNKKLPFNRSSSDMDLQKKQSNLATGLSKAKSQVFKNQDPVLPPRPKPGHPLYSKYMLSVPHGIANEDIVSQNPGELSCKRGDVLVMLKQTENNYLECQKGEDTGRVHLSQMKIITPLDEHLRSRPNDPSHAQKPVDSGAPHAVVLHDFPAEQVDDLNLTSGEIVYLLEKIDTDWYRGNCRNQIGIFPANYVKVIIDIPEGGNGKRECVSSHCVKGSRCVARFEYIGEQKDELSFSEGEIIILKEYVNEEWARGEVRGRTGIFPLNFVEPVEDYPTSGANVLSTKVPLKTKKEDSGSNSQVNSLPAEWCEALHSFTAETSDDLSFKRGDRIQILERLDSDWCRGRLQDREGIFPAVFVRPCPAEAKSMLAIVPKGRKAKALYDFRGENEDELSFKAGDIITELESVDDDWMSGELMGKSGIFPKNYIQFLQIS [SH3D19] | 0.0615 | -0.175 |  | 49 | -0.127 | 0.173 |
| MGRESRHYRKRSASRGRSGSRSRSRSPSDKRSKRGDDRRSRSRDRDRRRERSRSRDKRRSRSRDRKRLRRSRSRERDRSRERRRSRSRDRRRSRSRSRGRRSRSSSPGNKSKKTENRSRSKEKTDGGESSKEKKKDKDDKEDEKEKDAGNFDQNKLEEEMRKRKERVEKWREEQRKKAMENIGELKKEIEEMKQGKKWSLEDDDDDEDDPAEAEKEGNEMEGEELDPLDAYMEEVKEEVKKFNMRSVKGGGGNEKKSGPTVTKVVTVVTTKKAVVDSDKKKGELMENDQDAMEYSSEEEEVDLQTALTGYQTKQRKLLEPVDHGKIEYEPFRKNFYVEVPELAKMSQEEVNVFRLEMEGITVKGKGCPKPIKSWVQCGISMKILNSLKKHGYEKPTPIQTQAIPAIMSGRDLIGIAKTGSGKTIAFLLPMFRHIMDQRSLEEGEGPIAVIMTPTRELALQITKECKKFSKTLGLRVVCVYGGTGISEQIAELKRGAEIIVCTPGRMIDMLAANSGRVTNLRRVTYVVLDEADRMFDMGFEPQVMRIVDNVRPDRQTVMFSATFPRAMEALARRILSKPIEVQVGGRSVVCSDVEQQVIVIEEEKKFLKLLELLGHYQESGSVIIFVDKQEHADGLLKDLMRASYPCMSLHGGIDQYDRDSIINDFKNGTCKLLVATSVAARGLDVKHLILVVNYSCPNHYEDYVHRAGRTGRAGNKGYAYTFITEDQARYAGDIIKALELSGTAVPPDLEKLWSDFKDQQKAEGKIIKKSSGFSGKGFKFDETEQALANERKKLQKAALGLQDSDDEDAAVDIDEQIESMFNSKKRVKDMAAPGTSSVPAPTAGNAEKLEIAKRLALRINAQKNLGIESQDVMQQATNAILRGGTILAPTVSAKTIAEQLAEKINAKLNYVPLEKQEEERQDGGQNESFKRYEEELEINDFPQTARWKVTSKEALQRISEYSEAAITIRGTYFPPGKEPKEGERKIYLAIESANELAVQKAKAEITRLIKEELIRLQNSYQPTNKGRYKVL [DDX46] | 3.63 | 9.43 | 47.7 | 49.2 | -0.00451 | -0.607 |
| MRVRIGLTLLLCAVLLSLASASSDEEGSQDESLDSKTTLTSDESVKDHTTAGRVVAGQIFLDSEESELESSIQEEEDSLKSQEGESVTEDISFLESPNPENKDYEEPKKVRKPALTAIEGTAHGEPCHFPFLFLDKEYDECTSDGREDGRLWCATTYDYKADEKWGFCETEEEAAKRRQMQEAEMMYQTGMKILNGSNKKSQKREAYRYLQKAASMNHTKALERVSYALLFGDYLPQNIQAAREMFEKLTEEGSPKGQTALGFLYASGLGVNSSQAKALVYYTFGALGGNLIAHMVLGYRYWAGIGVLQSCESALTHYRLVANHVASDISLTGGSVVQRIRLPDEVENPGMNSGMLEEDLIQYYQFLAEKGDVQAQVGLGQLHLHGGRGVEQNHQRAFDYFNLAANAGNSHAMAFLGKMYSEGSDIVPQSNETALHYFKKAADMGNPVGQSGLGMAYLYGRGVQVNYDLALKYFQKAAEQGWVDGQLQLGSMYYNGIGVKRDYKQALKYFNLASQGGHILAFYNLAQMHASGTGVMRSCHTAVELFKNVCERGRWSERLMTAYNSYKDGDYNAAVIQYLLLAEQGYEVAQSNAAFILDQREASIVGENETYPRALLHWNRAASQGYTVARIKLGDYHFYGFGTDVDYETAFIHYRLASEQQHSAQAMFNLGYMHEKGLGIKQDIHLAKRFYDMAAEASPDAQVPVFLALCKLGVVYFLQYIRETNIRDMFTQLDMDQLLGPEWDLYLMTIIALLLGTVIAYRQRQHQDMPAPRPPGPRPAPPQQEGPPEQQPPQ [SEL1L] | -0.563 | -0.64 | 53.9 | 52 | -0.0462 | 0.228 |
